Assay results from the supplement of paper PMC10567573.

B1: KCTD10 (parent)
chain: SSKEEQKLIATSNKPAVKLLYNRS
B2: PRAME (parent)
chain: KKLKIFAMPMQDIKMILKMVQLDS

Variants of: B1
Experiment: protein stability index of a GFP-peptide fusion (GPS, HEK-293T) (PSI 1-6); higher = more stable
Settings: c terminus: a fixed tail appended
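Note: lentivirally expressed fusions sorted by FACS into six bins by GFP to DsRed ratio, PSI derived from sequencing read proportions per bin multiplied by bin number.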

Protein stability index of substitutions, site by site:
R23: P 4.21, Y 3.32, C 3.76, N 4.21, W 3.15, M 3.35, G 3.75, F 3.29, Q 4.01, E 4.63, V 3.74, A 3.99, H 3.85, D 4.71, S 4.13, T 3.7, K 4.29, L 3.03, I 3.37
K18: Y 3.03, W 2.4, V 3.13
Y21: H 4.46, V 3.67, K 4.68, Q 4.46, E 4.25, D 4.93, L 4.06, N 4.58, I 4.13, S 4.33, A 4.33, G 4.97, W 4.05, M 4.18, F 3.75, C 4.73, T 4.54, P 4.07, R 4.42
N22: P 3.83, A 3.84, H 4.01, M 2.92, R 4.15, D 4.55, Q 4.09, W 2.73, F 3.17, K 4.16, E 4.22, C 3.7, V 3.54, Y 2.96, L 3.14, T 4.12, I 2.71, S 3.41, G 4
L19: Y 4.56, S 4.18, K 4.69, R 4.29, N 4.72, G 4.13, A 4.59, V 4.25, I 4.59, T 4.95, E 4.44, D 4.62, Q 4.31, M 4.59, C 4.39, H 4.41, W 3.35, P 4.94, F 4.12
L20: S 4.35, V 4.09, K 4.53, T 4.72, N 4.37, D 4.53, Y 3.82, R 4.46, Q 4.28, M 4.11, F 3.95, H 4.48, C 3.79, A 4.89, I 4.6, G 4.73, P 4.98, W 3.35, E 3.98
S24: I 3.22, M 3.52, D 4.45, F 3.52, C 3.25, T 4.21, R 4.46, H 3.56, L 3.4, W 2.6, V 3.5, K 4.7, G 4.04, P 4.09, Q 4.17, E 4.55, N 4.2, Y 3.48, A 3.65

Variants of: B2
Experiment: as above
Settings: c terminus: a fixed tail appended

Protein stability index of substitutions, site by site:
M8: H 3.92, S 2.46, T 2.71, P 1.72, W 4.52, V 3.54, D 3.23, K 2.42, C 4.6, A 2.02, E 1.39, N 3.02, R 3.05, F 2.88, L 2.91
A7: S 3.04, D 3.87, K 3.26, I 3.67, W 3.77, V 2.83, C 2.66, Q 2, R 2.61, H 2.52, P 2.85, G 1.38, Y 4.92, N 2.46, M 2.6
K1: C 2.92, A 3.05, Y 1.86, M 2.68, V 2.08, T 3.61, D 3.38, Q 2.55, P 3.89, S 3.56, H 3.51, L 2.86, R 3.39, F 4.97, N 3.99, E 2.31
M15: G 2.96, P 1.81, D 2.22, I 2.09, N 1.59, C 2.02, A 2.66, E 2.36, Q 1, F 2.51, K 3.85, H 3.17
Q11: Y 3.22, W 3.08, A 3.71, C 2.32, P 3.82, K 3.32, T 2.39, F 3.43, M 2.31, I 2.57, R 4.36, S 2.52, D 2.47, L 2.85, V 2.19, H 3.43, N 2.79, G 3.84
F6: R 3.11, W 4.71, A 2.77, E 1.52, D 1.26, M 1.84, N 1.3, Q 1.59, C 3.09, L 3.92, G 2.55, T 2.2, K 2.72
P9: H 2.22, N 1.79, W 4.76, F 2.42, Y 1.43, C 2.96, T 4.36, I 2.11, L 1.62, V 2.94
K14: D 3.25, R 1.65, E 2.98, G 2.88, H 3.17, V 2.44, P 3.66, N 3.16, C 2.52, T 1.64, Y 2.42, Q 2.64, I 3.61, S 1.59
K4: V 3.08, R 1.99, I 3.41, G 4.41, W 2.87, F 2.44, D 1.92, M 3.45, H 4.52, E 2.02, N 1.6, C 2.4, T 3.69, Q 3.25, S 3.49, A 2.11, P 2.85
I13: N 1.54, V 3.55, E 1.65, R 2.96, A 2.39, P 1.32, H 1.84, K 1.44, Y 4.03, S 2.45, T 1.64, F 2.23, W 1.03, Q 1.93, M 2.88, D 2.66
L3: D 3.34, M 4.28, E 1.06, C 2.1, R 2.1, N 2.82, S 2.92, I 1.63, H 3.6, W 2.03, Y 4.33
I5: F 2.77, D 1.82, R 2.43, N 4.02, K 4.37, V 3.29, P 2.55, C 2.65, E 3.63, M 3.17, Y 2.6, H 1.77, T 2.5, G 4.35, A 3.02
K2: F 2.09, Q 3.53, S 2.94, V 2.36, Y 3.88, I 3.39, P 2.61, A 2.69, T 2.9, G 2.86, D 3.31, N 4.46, R 1.59, M 1.79, H 3.33, L 2.34
D12: K 2.75, P 3.3, Y 3.17, T 3.29, N 2.5, L 2.29, A 2.14, W 3.37, Q 4.16, E 2.5, C 3.07, M 4.16, I 1.63, F 3.57, R 2.17
M10: R 2.7, A 1.93, V 3.74, N 2.7, Y 2.52, K 2.06, C 2.5, G 3.5, D 2.39, P 2.72, Q 1.93, E 3.14, H 2.12, T 2.93
